Measured values published in patent US20230212305A1 (published 2023).
Substitutions are numbered along the chain they refer to.

Key:
human ABCG2 [1] = target: T1, human ABCG2 (UniProt Q9UNQ0 1-655); test: FACS cell binding
T1 chain: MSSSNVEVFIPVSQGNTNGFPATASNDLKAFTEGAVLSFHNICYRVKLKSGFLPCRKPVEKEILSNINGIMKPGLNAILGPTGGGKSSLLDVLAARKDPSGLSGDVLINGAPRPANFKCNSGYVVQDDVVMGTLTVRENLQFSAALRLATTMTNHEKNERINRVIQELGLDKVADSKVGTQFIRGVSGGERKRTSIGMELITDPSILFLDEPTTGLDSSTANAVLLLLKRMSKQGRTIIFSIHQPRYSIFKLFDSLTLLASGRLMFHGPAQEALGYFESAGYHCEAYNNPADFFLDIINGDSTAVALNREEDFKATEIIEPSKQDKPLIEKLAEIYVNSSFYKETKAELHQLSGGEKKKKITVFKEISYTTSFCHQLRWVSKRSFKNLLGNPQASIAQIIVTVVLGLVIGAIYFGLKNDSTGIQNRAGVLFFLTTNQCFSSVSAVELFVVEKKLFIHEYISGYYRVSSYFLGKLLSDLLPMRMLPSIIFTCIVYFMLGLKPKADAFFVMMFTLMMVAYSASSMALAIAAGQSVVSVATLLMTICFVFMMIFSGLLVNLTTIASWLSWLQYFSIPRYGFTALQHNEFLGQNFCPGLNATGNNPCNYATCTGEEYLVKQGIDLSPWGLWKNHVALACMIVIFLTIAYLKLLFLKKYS

human ABCG2 [2] = target: T1, human ABCG2; test: FACS cell binding (MFI)
[3] = target: T2, cynomolgus ABCG2 (Macaca fascicularis) (UniProt Q5MB13 1-654); test: FACS binding to 293T cells
T2 chain: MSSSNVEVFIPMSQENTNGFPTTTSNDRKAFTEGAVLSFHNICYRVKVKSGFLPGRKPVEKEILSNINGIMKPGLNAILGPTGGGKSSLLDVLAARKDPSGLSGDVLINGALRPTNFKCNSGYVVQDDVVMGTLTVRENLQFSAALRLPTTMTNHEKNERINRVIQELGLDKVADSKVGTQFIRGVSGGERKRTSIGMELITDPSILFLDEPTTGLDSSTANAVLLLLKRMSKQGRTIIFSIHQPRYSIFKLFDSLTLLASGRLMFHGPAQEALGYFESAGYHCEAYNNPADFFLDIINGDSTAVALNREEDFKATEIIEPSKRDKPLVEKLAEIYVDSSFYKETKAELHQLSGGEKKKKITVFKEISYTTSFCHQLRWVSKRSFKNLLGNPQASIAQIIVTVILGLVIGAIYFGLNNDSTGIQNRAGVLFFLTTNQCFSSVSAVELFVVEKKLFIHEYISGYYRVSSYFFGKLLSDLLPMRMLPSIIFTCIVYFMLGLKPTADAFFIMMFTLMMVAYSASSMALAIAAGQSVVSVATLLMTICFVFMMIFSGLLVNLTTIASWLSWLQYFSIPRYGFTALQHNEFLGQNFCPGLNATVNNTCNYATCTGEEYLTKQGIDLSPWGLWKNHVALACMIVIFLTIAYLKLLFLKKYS

human ABCG2 [4] = target: T1, human ABCG2; test: FACS binding to 293T cells
[5] = target: T2, cynomolgus ABCG2 (Macaca fascicularis); test: FACS binding to 293T cells
human ABCG2 [6] = target: T1, human ABCG2; test: FACS binding to 293T cells
[7] = target: T2, cynomolgus ABCG2 (Macaca fascicularis); test: FACS binding to 293T cells
human ABCG2 [8] = target: T1, human ABCG2; test: FACS binding to 293T cells
[9] = target: T2, cynomolgus ABCG2 (Macaca fascicularis); test: cell binding
human ABCG2 [10] = target: T1, human ABCG2; test: cell binding
[11] = target: T2, cynomolgus ABCG2 (Macaca fascicularis); test: FACS binding to 293T cells
human ABCG2 [12] = target: T1, human ABCG2; test: FACS binding to 293T cells
human ABCG2 [13] = target: T1, human ABCG2; test: FACS binding to 293T.hG2 cells
[14] = target: T2, cynomolgus ABCG2 (Macaca fascicularis); test: FACS binding to 293T.cG2 cells

B1: G2.173 Humanized 3 (antibody, V domains shown)
VH: EVQLVQSGAEVKKPGASVKVSCKASGFNIKDDYVHWVRQAPGQGLEWIGRIDPASGNTRYAPKFRGRATMTADTSISTAYMELSRLRSDDTAVYYCSPPLWVGGFAYWGQGTLVTVSS
VL: DVVMTQSPLSLPVTLGQPASISCRSSQSLVHSDVNTYLHWYQQRPGQSPRLLIYKVSNRFSGVPDRFSGSGSGTDFTLKISRVEAEDVGVYFCSQTTHVPYTFGGGTKLEIK
Kd (human ABCG2 [1]): 33.5 nM

B2: G2.173 mouse (antibody, V domains shown)
VH: QVQLQQSGADLVRPGASVKLSCTASGFNIKDDYVHWVKQRPEQGLEWIGRIDPANGNTRYAPKFRGKATMTADTSSNTAYLQLSSLTSADTAVYYCSPPLWVGGFAYWGQGTLVTVSS
VL: B1 VL with S7T, T14S, Q17D, P18Q, Q42L, R50K, A85S, V88L, V90I
EC50 (human ABCG2 [2]): 17.1 nM

B3: G2.65 mouse (antibody, V domains shown)
VH: QGQMHQSGAELVKPGASVKLSCKTSGFTFNSGYISWLKQKPRQSLEWIAWIYAGTGISNFNQKFTGKAQLTVDTSSSTAYMQLSSLTSADSAIYFCASGARKTLDFWGQGTSVTVSS
VL: DIQMTQSSSYLSVSVGGRVTITCKASDQINYWLAWYQQKPGNAPRLLISGATSLETGVPSRFSGSGSGKDYTLSITSFQTEDVATYYCQQYWTTPYTFGGGTKVEIK
EC50 (human ABCG2 [2]): 180 nM

B4: G2.302 mouse (antibody, V domains shown)
VH: QIQLQQSGPELVRPGASVKISCKASGYTFTDYYINWVKQRPGQGLEWIGWIYPGNVNVKYNEKFKGKATLTVDTSSSTGYMQLRSLTSEDSAVYFCARSIGLRYFDNWGQGTTLTVSS
VL: EKVLTQSPAIMSASLGEKVTMSCRASSSVHYMYWHQQKSDASPRLWIYYTSNLAPGVPARFSGSGSGNFYSLTISSVEDEDGATYYCQQFTTSTWTFGGGTKLEIK
Kd (human ABCG2 [1]): 33.6 nM | EC50 (human ABCG2 [2]): 18.5 nM

B5: G2.631 rat (antibody, V domains shown)
VH: EVKLLESGGGLVQSGRSLKLSCAASGFIFSRFYMAWVRQAPRKGLEWVAYISNGAGSTYYRESVKGRFIISRDNAKSTLYLQMDSLRSEDTATYYCTTVAAPWNYVMDGWGQGASVTVSS
VL: NIQITQSPSLLSASVGDRVTLSCKGSQNINNYLAWYQQKLGEAPKLLIYKTNSLHTGIPSRFSGSGSGTDYTLTISSLHSEDLATYYCYQYNNGYTFGAGTKLELK
Kd [3]: 67.7 nM | Kd (human ABCG2 [4]): 4.6 nM | Kd [5]: 15 nM

B6: G2.629 rat (antibody, V domains shown)
VH: EVQLVESGGGLVQPGRSLKLSCAASGFIFSRFYMAWVRQAPTKGLEWVAYINTGGGTTYYRDSVKGRFTISRDNAKTTLYLQMDSLRSEDTATYYCTTLAAPWNYVMDAWGQGASVTVSS
VL: B5 VL with N1D, I2V, Q3V, I4M, S22T, Y32F, I48T, A99P
Kd [3]: 540 nM | Kd (human ABCG2 [4]): 50.1 nM

B7: G2_732 (antibody, V domains shown)
VH: VQLKESGPGLVQPSQTLSLTCTVSGLSLTSTGVSWIRQPPGKGLEWMGVIWSNGGTDYNSAIKSRLSISRDTSKSQVFLKMNSLQTEDTAMYFCARAIAPSYIMDAWGQGASVTVSS
VL: DIQMTQSPPSLSASLGDKVTITCQASQNIHKYIAWYRQKPGKPPRLLIRYTSTLQSGTPSRFSGSGSGRDYSFSISNVESEDIASYYCLQYVNLWTFGGGTKLELK
Kd [5]: 14.8 nM | Kd (human ABCG2 [6]): 6.2 nM

B8: G2_746 (antibody, V domains shown)
VH: VKLEESGPGLVLPSQTLSLSCTVSGLSLISNSISWIRQPPGKGLEWMGVMWNNGGTDYNSAIKSRLSISRDTSKSQVFLKMNSLQTEDTAMYFCARGYSSYIFDYWGQGASVTVSS
VL: B7 VL with Q3L, K31G, R37Q, K42R, P43L, Y50L, Q55E, I83L
Kd [7]: 66.4 nM | Kd (human ABCG2 [8]): 22.3 nM

B9: G2_392 (antibody, V domains shown)
VH: B7 VH with K4V, G9D, K42R, K63R, P100A
VL: B7 VL with Q38H
Kd [5]: 93.4 nM | Kd (human ABCG2 [6]): 35.3 nM

B10: G2_360 (antibody, V domains shown)
VH: QVQLRESGPGLVQPSQTLSLTCTVSGLSLTSNSISWIRQPPGKGLEWMGVIWSTGGTDYNSAIKSRLSISRDTSKSQVFLKMNSLQTEDTAMYFCARAIAASAVMDAWGQGASVTVSS
VL: B7 VL with A34G, R37Q, P43A, Q55E, D70Y
Kd [5]: 156 nM | Kd (human ABCG2 [6]): 23.7 nM

B11: anti-ABCG2 antibody 5D3 (antibody, V domains shown)
VH: QVQLQESGPGLVKPSQSLSLTCTVTGFSITSDYAWNWIRQFPGKKLEWMGYINFDGGTTYNPSLRGRISITRDTSKNQFFLQLRSVTPEDTATYYCATFYGAKGTLDYWGQGTSVTVSS
VL: DIVLTQSPSSFSVSLGDRVTISCKASGYILNRLAWYQQKPGNAPRLLISGATSLETGFPSRFSGTGSGKDYTLSISSLQTEDVGTYYCQQYWSTPWTFGGGTKLEIK
EC50 [9]: 131 nM | EC50 (human ABCG2 [10]): 4.9 nM | EC50 (human ABCG2 [2]): 8.5 nM | Kd [3]: 253 nM | Kd (human ABCG2 [4]): 15.7 nM | Kd [11]: 99.2 nM | Kd (human ABCG2 [12]): 37.7 nM | Kd (human ABCG2 [13]): 37.7 nM | Kd [14]: 99.2 nM

B12: G2.343 rat (antibody, V domains shown)
VH: SVQLKESGPGLVQPSQTLSLTCTVSGFSLTSNGVSWVRQPPGKGLEWIAAISSGGSTYYNSVLKSRLSISRDTSKSQVFLKMNSLQTEDTAIYFCTRDTYYGYNQIPFVYWGQGTLVTVSS
VL: DVVLAQTPPTLSATIGQSVSISCRSSQSLLHSSGNTYLNWLLQRPGQPPQLLIYLVSRLESRVPNRFSGSGSGTDFTLKISGVEAEDLGVYYCVQSTHAPRTFGGGTKLELK
Kd [3]: 58.4 nM | Kd (human ABCG2 [4]): 8.4 nM

B13: G2.420 rat (antibody, V domains shown)
VH: SVQLMESGPGLVQPSQTLSLTCTVSGFSLNSYNVNWVRQPPGKGLEWIAAISSGGSTYYNSVLKSRLSITRDTSKSQVFLKMNSLQTEDTAMYFCARSGYYSSYMNWGQGVMVTVSS
VL: B12 VL with L4M, A5T, S33T, S61Y, R62G, V94A, P100L, R101N, G105A
Kd [3]: 29.9 nM | Kd (human ABCG2 [4]): 11.1 nM

B14: G2.748 rat (antibody, V domains shown)
VH: QVSLKESGPGMLQPSKTLSLTCSFSGFSLSTSGMVVNWIRQPSGKSLEWLAAIDWDGDKYYNPSLKHRLTVSKDTSNTQVVLKITSVDTADTATYYCARSIAPYRGWFGYWGQGTLVTVSS
VL: EIVLIQSPSSLPASLGERVTIICRASQDIGNNLNWYQQKPDGTIKPLIYFTSNFQSGVPSSFSGSRSGTDFSLTISSLEAEDFAMYYCQQDASLPWTFGGGTKLEIK
Kd [11]: 0.5 nM | Kd (human ABCG2 [12]): 0.5 nM | Kd (human ABCG2 [13]): 0.5 nM | Kd [14]: 0.5 nM
